This note sets out measurements from paper doi:10.1101/2023.12.21.572918 (bioRxiv, 2023).

This experiment addresses full length native GPC (strain Josiah) expressed on HEK293 cells (Lassa virus, strain Josiah, UniProt P08669). As to the kind of experiment: flow cytometry on cells. The note with it: one partner purified.

Chain of full length native GPC (strain Josiah) expressed on HEK293 cells (P08669 whole entry, looked up): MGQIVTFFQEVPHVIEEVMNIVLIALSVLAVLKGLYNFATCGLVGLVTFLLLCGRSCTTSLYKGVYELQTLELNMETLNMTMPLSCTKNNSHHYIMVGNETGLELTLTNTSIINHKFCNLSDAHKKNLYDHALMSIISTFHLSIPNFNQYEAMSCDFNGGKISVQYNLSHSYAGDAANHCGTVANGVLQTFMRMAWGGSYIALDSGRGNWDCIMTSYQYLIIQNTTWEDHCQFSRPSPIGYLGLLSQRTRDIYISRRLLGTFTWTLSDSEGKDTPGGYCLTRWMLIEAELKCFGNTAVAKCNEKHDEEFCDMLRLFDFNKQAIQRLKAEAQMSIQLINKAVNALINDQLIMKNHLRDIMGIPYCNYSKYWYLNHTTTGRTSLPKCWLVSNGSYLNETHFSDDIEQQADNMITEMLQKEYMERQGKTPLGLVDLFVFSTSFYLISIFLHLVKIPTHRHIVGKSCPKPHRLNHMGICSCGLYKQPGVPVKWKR

B1: 25.10C IgG (antibody, V domains shown)
VH: QVQLQESGGGLVKPGGSLRLSCTASGFNFNKYNMNWVRQAPGKGLEWVSSISALSTYIYYADSLKGRFTVSRDNAKNSLFLQMNSLRDDDTAVYYCAREIRRASTWSADLWGRGTLVTVSS
VL: DIQMTQSPSSLSASVGDRVIITCRASQSISSSLNWYQQKPGKAPKLLIYAAVNLETGVPSRFSGSGFGTDFTLAISNVQPEDFATYYCQQSDTRTFGRGTKLDVK
Consider B1, for which the binding result is recorded as “binds”.
